In paper PMC11546553, “Chitin Translocation Is Functionally Coupled with Synthesis in Chitin Synthase” (International Journal of Molecular Sciences, 2024):

Molecular target: the molecule itself
Experiment: cryo-EM structure; purified PsCHS at 3 mg/mL in digitonin, incubated with 0.5 mM UDP-GlcNAc and 1 mM Mn2+ for 15 min or 40 min at 25 °C before freezing; UDP/Mn2+-bound state resolved for both samples

B1: Phytophthora sojae chitin synthase 1 (enzyme)
chain: MSGAPPPSSGFAPRSYGQQPLSHAPRSSMMSVEYDGIPLPPPSIRSCGSQQYVTSYIPTGAAFPPSSVQDMISSMKSYASATDLVRTYSEIPSVEEALSTLDRAAAALNARRYRDALKLYLEGGYAMANVAERQANPKICNLLTSKGFETLNWCARLCDWIEGRIKEKHPRPGVHKVGIPVSNWDEDWVGPFMDEEEARRMWYTPVYCPHPIDFSNLGYRLRCVETGRRPRLMICITMYNEGPQQLKATLKKLANNLAYLKEQMPGDEKSLTGAFAGDDVWQNVLVCIVADGREQVHPKTLDYLEAIGLYDEDLLTINSAGIGAQCHLFEHTLQLSVNGKCLLPIQTVFALKENKASKLDSHHWYFNAFAEQIQPEYTAVMDVGTMLTKSALYHLLFAFERNHQIGGACGQLTVDNPFENLSNWVISAQHFEYKISNILDKSLESCFGFISVLPGAFSAYRYEAIRGAPLDAYFQTLNIELDVLGPFIGNMYLAEDRILSFEVVARKNCNWTMHYVKDAVARTDVPHDLVGLISQRKRWLNGAFFATLFSIWNWGRIYSESKHTFVRKMAFLVFYVYHLLYTAFGFFLPANLYLALFFIVFQGFQQNRLEFIDTSEYSQTVLDCAVYIYNFSYLFGLLMLIIIGLGNNPKHMKLTYYFVGAVFGLMMMLSSLVGAGIFFSTPATVHSIVVSILTVGVYFIASALHGEVHHIFMTFTHYTALIPSFVNIFTIYSFCNLQDLSWGTKGLHDDPLLAASLDETEKGDFKDVIAKRRALEELRREEKERVENRKKNFEAFRTNVLLTWAFSNLIFALFVVYFASSSTYMPVLYIFVASLNTCRLLGSIGHWVYIHTEGLRGRVIDKSECGNGTGRYPQNSYVQLEEHYAALAEDQRTYASGRTNASVRTVNDVSSAA
notes: Phytophthora sojae chitin synthase 1 (PsCHS1), the PsCHS gene in pcDNA3.1; the final models lack residues 1-22, stretches within 40-90, 738-761 and 860-925; also called PsCHS; PsCHS1; source: HEK293F cells, transfected (pcDNA3.1), purified (digitonin solubilisation, Ni-NTA, Superose 6 Increase SEC)
stoichiometry N: 2
